The values that follow come from paper PMC6166816 (Proceedings of the National Academy of Sciences of the …, 2018).

Values joined by “and” are separate entries in the source; they are usually repeats but may differ in a detail not shown here. Identical values can stand only once.

Test [1] addresses T1, MNoV (MNV1) strain CW3 VP1 protruding (P) domain (murine norovirus (MNV1 strain CW3), UniProt Q80J94 229-540).
T1 sequence: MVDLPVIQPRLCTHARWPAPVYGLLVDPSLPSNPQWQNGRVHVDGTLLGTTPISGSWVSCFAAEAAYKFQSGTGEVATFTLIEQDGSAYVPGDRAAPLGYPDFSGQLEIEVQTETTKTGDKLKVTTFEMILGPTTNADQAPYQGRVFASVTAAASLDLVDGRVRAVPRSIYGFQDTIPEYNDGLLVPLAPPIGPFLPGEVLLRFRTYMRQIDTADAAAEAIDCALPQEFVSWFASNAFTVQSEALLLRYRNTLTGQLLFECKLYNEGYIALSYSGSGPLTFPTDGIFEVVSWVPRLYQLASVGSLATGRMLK
Kind of test: ITC.

The target in test [2] is T1, MNoV (MNV1) strain CW3 VP1 protruding …. Kind of test: SPR. On the technique in general: Surface plasmon resonance follows binding to a sensor surface in real time, without labels.
For test [3] the target is unchanged. The test can be described thus: BLI.

B1: murine CD300lf ectodomain (receptor)
chain: MAEDPVTGPEEVSGQEQGSLTVQCRYTSGWKDYKKYWCQGVPQRSCKTLVETDASEQLVKKNRVSIRDNQRDFIFTVTMEDLRMSDAGIYWCGITKGGLDPMFKVTVNIGPVPT
With B1, in test [1], the dissociation constant Kd – broadly, the equilibrium constant for the complex coming apart – was 24.5 µM and ~24.3 µM and 12 µM; the stoichiometry N (in general, a count of units in the complex or per binding partner) is around 1. In addition, binding in test [2] was characterised by a dissociation constant (Kd) of 219 µM.

B2: Fc–CD300lf fusion protein (Fc fusion)
chain: EDPVTGPEEVSGQEQGSLTVQCRYTSGWKDYKKYWCQGVPQRSCKTLVETDASEQLVKKNRVSIRDNQRDFIFTVTMEDLRMSDAGIYWCGITKGGLDPMFKVTVNIGP
For B2, the Kd in test [3] came out at 0.54 µM.
